Results taken from paper PMC10965980.

Molecular target: mGluR1 (UniProt P97772)
Experiment: anti-Homer1 IP, mGluR1 western blot
Conditions: reference: wild-type Homer1; sites S117

## Homer1 (from UniProt Q9Z2Y3) Homer1 S117A
  binding against the reference: stronger
